Assay results taken from EP4477666A1 (Max-Planck-Gesellschaft zur Förderung der Wissenschaften …, dated 2024).

T1: human Nup358 (human, UniProt P49792 1-145)
T1 construct: The stainings were on whole NPCs of HeLa cells
T1 sequence (looked up): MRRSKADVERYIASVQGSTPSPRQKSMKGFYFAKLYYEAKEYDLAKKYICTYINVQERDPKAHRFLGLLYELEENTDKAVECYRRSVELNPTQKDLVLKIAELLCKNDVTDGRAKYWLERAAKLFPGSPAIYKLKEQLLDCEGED

T2: human Nup133 β-propeller (human, UniProt Q8WUM0 67-514, limits assumed)
T2 construct: domain: β-propeller; also called human Nup133 beta propeller; human propeller
T2 sequence (looked up): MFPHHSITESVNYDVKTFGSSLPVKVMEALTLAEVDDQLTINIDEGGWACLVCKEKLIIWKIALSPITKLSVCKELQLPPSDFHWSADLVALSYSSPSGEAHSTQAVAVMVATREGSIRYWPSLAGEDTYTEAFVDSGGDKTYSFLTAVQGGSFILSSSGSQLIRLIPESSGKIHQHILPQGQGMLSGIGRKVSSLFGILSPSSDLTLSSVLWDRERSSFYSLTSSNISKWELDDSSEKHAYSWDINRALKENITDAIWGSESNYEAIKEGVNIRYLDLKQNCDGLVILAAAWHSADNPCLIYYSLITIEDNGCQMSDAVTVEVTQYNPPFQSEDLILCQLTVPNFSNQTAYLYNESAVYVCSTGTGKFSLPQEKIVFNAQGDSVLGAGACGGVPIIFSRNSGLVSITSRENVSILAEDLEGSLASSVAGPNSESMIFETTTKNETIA

T3: human Nup133 in nuclear pore complexes of HeLa cells (human, UniProt Q8WUM0 1-1156)
T3 construct: whole, on cells; Endogenous protein inside permeabilized HeLa cells, as part of assembled NPCs; not on the cell surface; also called human NPCs
T3 sequence (looked up): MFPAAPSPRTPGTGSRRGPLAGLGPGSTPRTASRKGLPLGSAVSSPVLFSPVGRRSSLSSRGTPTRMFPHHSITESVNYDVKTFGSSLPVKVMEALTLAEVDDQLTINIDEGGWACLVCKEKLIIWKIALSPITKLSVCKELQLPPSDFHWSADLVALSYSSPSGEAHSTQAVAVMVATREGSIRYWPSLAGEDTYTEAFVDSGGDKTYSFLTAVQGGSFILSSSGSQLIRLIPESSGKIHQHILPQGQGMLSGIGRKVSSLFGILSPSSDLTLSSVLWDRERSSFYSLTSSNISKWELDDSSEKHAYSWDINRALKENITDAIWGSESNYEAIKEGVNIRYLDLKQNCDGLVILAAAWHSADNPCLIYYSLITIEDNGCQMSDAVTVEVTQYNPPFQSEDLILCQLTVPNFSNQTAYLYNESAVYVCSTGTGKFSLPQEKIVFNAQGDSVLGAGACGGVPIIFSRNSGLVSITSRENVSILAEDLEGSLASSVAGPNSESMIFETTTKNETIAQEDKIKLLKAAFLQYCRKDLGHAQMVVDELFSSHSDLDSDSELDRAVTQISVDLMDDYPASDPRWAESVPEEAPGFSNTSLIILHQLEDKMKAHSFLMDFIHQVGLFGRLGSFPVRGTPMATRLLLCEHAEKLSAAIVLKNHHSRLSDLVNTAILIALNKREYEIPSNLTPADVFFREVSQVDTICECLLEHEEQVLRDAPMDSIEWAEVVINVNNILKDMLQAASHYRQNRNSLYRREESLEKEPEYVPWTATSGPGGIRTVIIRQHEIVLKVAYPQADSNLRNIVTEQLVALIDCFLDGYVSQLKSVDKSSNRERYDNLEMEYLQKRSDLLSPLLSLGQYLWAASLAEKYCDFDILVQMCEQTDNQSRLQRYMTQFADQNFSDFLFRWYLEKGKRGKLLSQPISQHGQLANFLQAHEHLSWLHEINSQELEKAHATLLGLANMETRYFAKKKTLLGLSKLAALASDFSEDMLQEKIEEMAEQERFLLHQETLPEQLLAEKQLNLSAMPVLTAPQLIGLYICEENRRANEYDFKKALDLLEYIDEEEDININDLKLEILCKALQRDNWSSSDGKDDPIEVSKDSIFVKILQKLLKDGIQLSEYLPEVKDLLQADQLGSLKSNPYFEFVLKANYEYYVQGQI


Experiments:
human Nup358 = target: T1, human Nup358; assay: Table 1, target and cross-reactivity (immunofluorescence, Figure 1)
[1] = target: T4, Xenopus Nup133 β-propeller (Xenopus); assay: BLI (Octet Red96), biotinylated VHH on streptavidin sensors, 40 nM propeller in solution
T4 construct: domain: β-propeller; also called Xenopus Nup133 beta propeller; Xenopus propeller

human Nup133 β-propeller = target: T2, human Nup133 β-propeller; assay: as above
[2] = target: T3, human Nup133 in nuclear pore complexes …; assay: immunofluorescence of HeLa cells with fluorophore-labelled VHH (Figures 1 and 2)

| Binder | binding result (human Nup358) | Kd [1] | Kd (human Nup133 β-propeller) | binding result [2] |
| --- | --- | --- | --- | --- |
| xhNup358-Nb2t (VHH, For staining the VHHs carried two ectopic cysteines (N- and C-termini) labelled with fluorophore maleimide) VHH: QVQLVESGGGLVQPGGSLRLSCAASGRPLSDYAMGWFRQAPGKEREFVAAISWKGGETFYAGSVKGRFTISRDDAKNSLYLQMNNLKLEDTAEYSCAAVLGSPHYSGTHYYPAEYDYWGQGTQVTVSS | binds |  |  |  |
| KG1D08 (VHH, also called anti-Nup133 VHH KG1D08) VHH: QVQLVESGGGLVQAGGSLRLSCAASGRSFRGNIMAWFRQTPGKERLFVASITGSGYTSYENSVKGRFTISRDSARDTVDLQMTTLAPEDTAVYYCAGRFRGGHNRMPDAYEYWGQGTQVTVSS |  |  |  | binds |

Second part, the binder after the results:

| binding result (human Nup358) | Kd [1] | Kd (human Nup133 β-propeller) | binding result [2] | Binder |
| --- | --- | --- | --- | --- |
|  | < 0.01 nM | ~2 nM |  | KG1D08, biotinylated, reduced form (structural cysteines not disulfide-bonded) (VHH, Biotin-PEG11-maleimide on the two additional cysteines at N- and C-terminus; structural cysteines reduced ; Two additional ectopic cysteines at the N- and C-terminus, not in the letters, each carry Biotin-PEG11-maleimide. Struct [CUT], Expressed in the cytoplasm of E. coli NEB Express; also called reduced KG1D08; not shown: The short N- and C-terminal extensions that carry the two ectopic, biotinylated cysteines) VHH: QVQLVESGGGLVQAGGSLRLSCAASGRSFRGNIMAWFRQTPGKERLFVASITGSGYTSYENSVKGRFTISRDSARDTVDLQMTTLAPEDTAVYYCAGRFRGGHNRMPDAYEYWGQGTQVTVSS |
|  | < 0.01 nM | ~2 nM |  | KG1D08, biotinylated, post-production disulfide-bridged form (VHH, Biotin-PEG11-maleimide on the two additional cysteines at N- and C-terminus; structural cysteines quantitatively oxidized to the intramolecular disulfide bond ; Two additional ectopic cysteines at the N- and C-terminus, not in the letters, each carry Biotin-PEG11-maleimide. Struct [CUT], Same preparation as the reduced form, then treated with 2 mM GSSG and 1.5 µM each DsbA, DsbC, DsbG for 5 minutes at 52°C (45 minutes heat up); also called KG1D08 with post-production disulfide-bonding; disulfide-stabilized VHH; not shown: The short N- and C-terminal extensions that carry the two ectopic, biotinylated cysteines) VHH: QVQLVESGGGLVQAGGSLRLSCAASGRSFRGNIMAWFRQTPGKERLFVASITGSGYTSYENSVKGRFTISRDSARDTVDLQMTTLAPEDTAVYYCAGRFRGGHNRMPDAYEYWGQGTQVTVSS |
